Measured values published in patent US20220177596A1 (Bristol-Myers Squibb, published 2022).

T1: hCD32a-H131-His (human, UniProt P12318 34-217)
T1 construct: Generated in house; captured on anti-His Fab; also called FcgRIIa-H131
T1 sequence: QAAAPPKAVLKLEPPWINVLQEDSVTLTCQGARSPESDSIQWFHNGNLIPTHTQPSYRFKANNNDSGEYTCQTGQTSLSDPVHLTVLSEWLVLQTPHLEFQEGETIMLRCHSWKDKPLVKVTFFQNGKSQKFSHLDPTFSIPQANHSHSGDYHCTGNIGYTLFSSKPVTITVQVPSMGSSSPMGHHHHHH

T2: hCD32a-R131-His (human, UniProt P12318 34-217)
T2 construct: Generated in house; captured on anti-His Fab; Allele R131 as printed; the database entry may carry H at that position; also called FcgRIIa-R131
T2 sequence: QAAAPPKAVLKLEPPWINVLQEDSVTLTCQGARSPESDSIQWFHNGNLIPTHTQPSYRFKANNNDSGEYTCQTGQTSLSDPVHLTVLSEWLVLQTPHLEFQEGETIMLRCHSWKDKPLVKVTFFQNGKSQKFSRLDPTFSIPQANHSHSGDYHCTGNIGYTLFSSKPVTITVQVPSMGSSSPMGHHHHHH

T3: hCD32b-His (human, UniProt P31994 43-217)
T3 construct: Generated in house; captured on anti-His Fab; also called FcgRIIb
T3 sequence: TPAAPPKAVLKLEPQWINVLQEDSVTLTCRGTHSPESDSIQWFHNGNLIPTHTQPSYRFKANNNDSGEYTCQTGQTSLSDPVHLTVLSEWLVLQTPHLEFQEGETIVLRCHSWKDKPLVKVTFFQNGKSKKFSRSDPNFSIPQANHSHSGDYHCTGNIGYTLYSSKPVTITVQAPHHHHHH


Key:
hCD32a-H131-His = target: T1, hCD32a-H131-His; test: SPR
Method: (§1) FCGR BINDING SPR: FcgR binding can be measured in vitro using purified FcgRs using methods such as BIAcore™ surface plasmon resonance (SPR). One method tests the binding of purified antibodies to His-tagged FcgR proteins (FcgR-His) which are captured on the immobilized Fab fragment of an anti-His antibody. These experiments are performed on either a BIAcore™ T100 or BIAcore™ T200 instrument (GE Healthcare Life Sciences, Marlborough, Mass.) at 25° C. The Fab fragment from a murine anti-6×His antibody (generated in house) is immobilized on a CMS sensor chip using standard ethyl(dimethylaminopropyl) carbodiimide (EDC)/N-hydroxysuccinimide (NHS) chemistry with ethanolamine blocking, to a density of ˜3000 RU in a running buffer of 10 mM HEPES pH 7.4, 150 mM NaCl, 3 mM EDTA, 0.05% surfactant p20 (HBS-EP+). All remaining studies are performed using a running buffer of 10 mM NaPO4, 130 mM NaCl, 0.05% p20 (PBS-T) pH 7.1. Various FcγR proteins containing a C-terminal 6× poly-histidine tag (generated in house) are captured on this surface (typically using FcgR-his protein concentration of ˜7 μg/ml) using a contact time of 30 sec at 10 μl/min. Various concentrations of purified antibody are tested for binding, for example using an association time of 120 seconds at 30 μl/min, and a dissociation time of 120 seconds at 30 μl/min. FcgR proteins tested in these studies include the “high affinity” FcgR CD64 (hFcgRI), as well as the “low affinity” FcgRs CD32a-H131 (FcgRIIa-H131), CD32a-R131 (FcgRIIa-R131), CD32b (FcgRIIb), CD16a-V158 (FcgRIIIa-V158), and CD16b-NA2 (FcgRIIIb-NA2).

hCD32a-R131-His = target: T2, hCD32a-R131-His; test: SPR
Method: as §1

hCD16a-V158-His = target: T4, hCD16a-V158-His (human, UniProt P08637 17-208); test: SPR
T4 construct: Generated in house; captured on anti-His Fab; Allele V158 as printed; the database entry may carry F at that position; also called FcgRIIIa-V158
Method: as §1

hCD32b-His = target: T3, hCD32b-His; test: SPR
Method: as §1

human-CD40 monomer = target: T5, human-CD40 monomer (human, UniProt P25942 21-193, limits assumed); test: SPR, Ab captured on protein A, CD40 monomer analyte
T5 construct: also called hCD40-monomer; human-CD40-monomer protein

hCD64-His = target: T6, hCD64-His (human, UniProt P12314 16-288, limits assumed); test: SPR (BIAcore): 7 µg/ml hCD64-His captured on an anti-His Fab surface, 1 µM antibody as analyte
T6 construct: Generated in house; captured on anti-His Fab; also called hFcgRI; FcgRI
Method: as §1

T5 sequence (P25942 21-193 limits assumed): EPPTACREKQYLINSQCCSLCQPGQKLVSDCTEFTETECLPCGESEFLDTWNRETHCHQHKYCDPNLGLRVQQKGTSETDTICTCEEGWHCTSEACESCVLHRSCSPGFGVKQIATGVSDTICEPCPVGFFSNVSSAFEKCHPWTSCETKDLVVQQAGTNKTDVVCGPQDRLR
T6 sequence (P12314 other isoform, or with tags, fused parts or gaps limits assumed): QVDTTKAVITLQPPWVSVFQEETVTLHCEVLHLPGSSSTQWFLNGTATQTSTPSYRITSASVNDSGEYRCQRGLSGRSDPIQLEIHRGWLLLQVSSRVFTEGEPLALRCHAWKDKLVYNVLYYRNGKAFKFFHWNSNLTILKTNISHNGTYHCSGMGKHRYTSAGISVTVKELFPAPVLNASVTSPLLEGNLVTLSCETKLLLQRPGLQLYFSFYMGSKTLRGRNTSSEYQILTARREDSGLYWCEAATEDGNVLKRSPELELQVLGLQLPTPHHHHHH
T4 sequence (P08637 other isoform, or with tags, fused parts or gaps limits assumed): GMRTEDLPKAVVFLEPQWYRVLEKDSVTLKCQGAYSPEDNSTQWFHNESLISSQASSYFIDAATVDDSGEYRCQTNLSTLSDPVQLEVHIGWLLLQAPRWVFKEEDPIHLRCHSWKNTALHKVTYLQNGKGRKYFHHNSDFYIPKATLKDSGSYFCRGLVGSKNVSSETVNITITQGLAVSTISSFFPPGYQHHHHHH

binding result (hCD32a-H131-His)	binding result (hCD32a-R131-His)	binding result (hCD16a-V158-His)	binding result (hCD32b-His)	Kd (human-CD40 monomer) [nM]	koff (human-CD40 monomer) [s⁻¹]	kon (human-CD40 monomer) [M⁻¹ s⁻¹]	binding result (hCD64-His)	Binder
binds	binds	binds	binds	6.7	0.00046	69000	binds	5F11-45-IgG1f (antibody, Humanized anti-CD40, wild type human IgG1f) heavy: not shown light: DIVLTQSPDSLAVSLGERATINCRASKNVDSYGNSFMHWYQQKPGQPPKLLIYRASNLESGVPDRFSGSGSGTDFTLTISSLQAEDVAVYYCQQSNEDPLTFGQGTKLEIKRTVAAPSVFIFPPSDEQLKSGTASVVCLLNNFYPREAKVQWKVDNALQSGNSQESVTEQDSKDSTYSLSSTLTLSKADYEKHKVYACEVTHQGLSSPVTKSFNRGEC
binds	binds		binds	6.6	0.00047	71000		5F11-45-SE (antibody, human IgG1, kappa, also called S267E variant) heavy: not shown light: DIVLTQSPDSLAVSLGERATINCRASKNVDSYGNSFMHWYQQKPGQPPKLLIYRASNLESGVPDRFSGSGSGTDFTLTISSLQAEDVAVYYCQQSNEDPLTFGQGTKLEIKRTVAAPSVFIFPPSDEQLKSGTASVVCLLNNFYPREAKVQWKVDNALQSGNSQESVTEQDSKDSTYSLSSTLTLSKADYEKHKVYACEVTHQGLSSPVTKSFNRGEC
